Results: the supplement of paper PMC11908140

B1: library; numbered along this chain (parent)
chain: MRKPRAAVGSGHRKQAASQEGRQKHAKNNSQAKPSACDGLARQPEEVVLQASVSSYHLFRDVAEVTAFRGSLLSWYDQEKRDLPWRRRAEDEMDLDRRAYAVWVSEVMLQQTQVATVINYYTGWMQKWPTLQDLASASLEEVNQLWAGLGYYSRGRRLQEGARKVVEELGGHMPRTAETLQQLLPGVGRYTAGAIASIAFGQATGVVDGNVARVLCRVRAIGADPSSTLVSQQLWGLAQQLVDPARPGDFNQAAMELGATVCTPQRPLCSQCPVESLCRARQRVEQEQLLASGSLSGSPDVEECAPNTGQCHLCLPPSEPWDQTLGVVNFPRKASRKPPREESSATCVLEQPGALGAQILLVQRPNSGLLAGLWEFPSVTWEPSEQLQRKALLQELQRWAGPLPATHLRHLGEVVHTFSHIKLTYQVYGLALEGQTPVTTVPPGARWLTQEEFHTAAVSTAMKKVFRVYQGQQPGTCMGSKRSQVSSPCSRKKPRMGQQVLDNFFRSHISTDAHSLNSAAQ

Variants of: B1
Experiment: 8OG:A repair function score (normalized; synonymous = 0, nonsense = -1) (normalized log-likelihood score); higher = more repair activity (WT-like)
Details: with 8OG:A DNA repair reporter (GFP) in HEK-293 MUTYH KO cells
In short: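 Lentiviral MUTYH cDNA NNN codon-scan libraries in HEK-293 MUTYH knockout cells (10 pg/ml doxycycline) were co-transfected with an 8OG:A GFP repair reporter plus mCherry. At 72 h, viable mCherry+ cells were sorted into GFP+ (repair) and GFP− bins, three replicates per tile, then tile amplicons were sequenced. Per-tile Rosace fitness scores became a normalized repair function score anchored on synonymous and nonsense distributions. Synonymous medians were set to 0 and nonsense to -1; variants under 300 counts per million at the start were removed.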

In order of rising “8OG:A repair function score” value:
1. W75P  -3.8
2. R86Q  -2.68
3. K80D  -1.37
4. A196W  -1.18
5. P174W  -1.14
6. R217P  -1.04
7. A253Q  -1.02
8. K333E  -1.01
9. I221G  -0.993
10. L149P  -0.979
11. T112E  -0.925
12. G205Y  -0.873
13. K80W  -0.847
14. L360A  -0.845
15. H420K  -0.792
16. L396P  -0.766
17. V104S  -0.759
18. V218W  -0.74
19. V261D  -0.737
20. P174M  -0.732
21. E375I  -0.715
22. R246F  -0.68
23. G205E  -0.592
24. P185W  -0.553
25. G148T  -0.549
26. R364P  -0.519
27. V328P  -0.507
28. A196M  -0.507
29. V242T  -0.488
30. G222Y  -0.461
31. L237H  -0.433
32. N143K  -0.343
33. D94F  -0.287
34. R69G  -0.281
35. P273C  -0.28
36. R279F  -0.277
37. G123D  -0.257
38. R279E  -0.233
39. A137D  -0.219
40. V218I  -0.196
41. D94R  -0.182
42. Y469T  -0.181
43. E167A  -0.18
44. R279I  -0.172
45. A135T  -0.165
46. T66P  -0.115
47. P316R  -0.109
48. V166F  -0.0998
49. W321V  -0.0988
50. L369I  -0.0978
51. Q126G  -0.0912
52. E382R  -0.0901
53. I509Y  -0.0704
54. P331G  -0.0671
55. E141A  -0.0585
56. A177N  -0.0568
57. T324C  -0.0556
58. C347I  -0.0428
59. P488F  -0.042
60. S276I  -0.0404
61. K390G  -0.0253
62. H508M  -0.0245
63. A177K  -0.0185
64. S270W  -0.0132
65. H508R  -0.0128
66. P474A  -0.0123
67. T66F  -0.00932
68. S490A  -0.00415
69. H508F  -0.00232
70. I118H  0.000662
71. L501V  0.00157
72. G479K  0.00166
73. P488G  0.0021
74. M93Q  0.00486
75. S480V  0.00525
76. S54H  0.0058
77. R266H  0.00581
78. P488N  0.00623
79. A196S  0.00714
80. P474L  0.0136
81. T122D  0.0468
82. V48D  0.0961
83. K164M  0.168
84. S226Q  0.176
